Data on one molecule can be found in patent publication US20090031441A1 (NATIONAL UNIVERSITY CORPORATION NAGOYA UNIVERSITY, published 2009).

The target in the assay is T1, RGA (Arabidopsis DELLA protein), yeast two-hybrid prey in pGADT7 AD vector (Arabidopsis, UniProt Q9SLH3 1-587).
T1 construct: also called AtDELLA
T1 sequence (looked up): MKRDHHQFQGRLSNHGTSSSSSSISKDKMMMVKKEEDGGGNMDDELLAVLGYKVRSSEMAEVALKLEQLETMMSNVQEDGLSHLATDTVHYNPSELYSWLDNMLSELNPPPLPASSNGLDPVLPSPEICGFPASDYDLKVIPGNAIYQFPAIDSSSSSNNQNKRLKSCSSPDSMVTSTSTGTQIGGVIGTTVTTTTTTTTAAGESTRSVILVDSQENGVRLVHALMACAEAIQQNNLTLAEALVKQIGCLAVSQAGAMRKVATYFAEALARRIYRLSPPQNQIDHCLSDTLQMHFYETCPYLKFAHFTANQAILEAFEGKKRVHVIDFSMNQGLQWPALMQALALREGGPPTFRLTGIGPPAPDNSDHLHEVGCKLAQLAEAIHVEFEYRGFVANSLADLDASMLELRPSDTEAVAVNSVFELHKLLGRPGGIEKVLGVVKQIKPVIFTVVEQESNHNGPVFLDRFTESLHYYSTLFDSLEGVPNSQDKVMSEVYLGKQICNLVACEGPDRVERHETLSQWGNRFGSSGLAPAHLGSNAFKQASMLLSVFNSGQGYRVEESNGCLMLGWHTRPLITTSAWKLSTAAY
The assay can be described thus: yeast two-hybrid Assay B (beta-galactosidase), GA4 dose response 10^-5 to 10^-9 M. The protocol: Each AtGID1 was used as a bait while AtDELLA was a prey. GA₄ (10⁻⁵ M) was added to the medium. The bars indicates β-galactosidase activity when o-nitrophenol-β-D-galactopyranoside was used as a substrate (Assay B). The growth of each transformant in the defined medium for 2 days (Assay A) is shown beneath of each bar graph. The experiment was carried out in quadruplicate. The SD value shown in the figure was determined from three measurements. Panel B) depicts the dose response in AtGID1-RGA interaction in Assay B of Y2H. GA₄ (10⁻⁵ to 10⁻⁹ M) was added to the medium. The experiment was conducted in duplicates. The SD value shown in the figure was determined from three measurements. Panel C) depicts the results of an evaluation of the in vitro GA-binding potency of AtGID1 using AtDELLA. Left panel, 15 minutes after mixing AtGID1c (C), tritiated GA, with an excess amount of non-labeled GA (+) or without non-labeled GA (−). GAI (G) or RGA (R) was added, and then the GA-binding activity in each reaction mixture was measured according to the standard method. Recombinant protein originating from the vector (v) was used as a negative control. The experiment was carried out in duplicates. The SD value was determined from three measurements. Right panel, a profile of Western blotting for recombinant AtDELLA using an antibody to His tag. G, GAI; R, RGA; v, vector; M, molecular weight marker. […]

B1: AtGID1b (At3g63010), yeast two-hybrid bait in pGBKT7 DNA-BD vector (receptor, not shown: small tags and cut ends)
chain: MAGGNEVNLNECKRIVPLNTWVLISNFKLAYKVLRRPDGSFNRDLAEFLDRKVPANSFPLDGVFSFDHVDSTTNLLTRIYQPASLLHQTRHGTLELTKPLSTTEIVPVLIFFHGGSFTHSSANSAIYDTFCRRLVTICGVVVVSVDYRRSPEHRYPCAYDDGWNALNWVKSRVWLQSGKDSNVYVYLAGDSSGGNIAHNVAVRATNEGVKVLGNILLHPMFGGQERTQSEKTLDGKYFVTIQDRDWYWRAYLPEGEDRDHPACNPFGPRGQSLKGVNFPKSLVVVAGLDLVQDWQLAYVDGLKKTGLEVNLLYLKQATIGFYFLPNNDHFHCLMEELNKFVHSIEDSQSKSSPVLLTP
notes: Bait fusion for the Y2H assays; also called Arabidopsis GID1
As to B1, the binding result is recorded as “binds”.
